Laboratory results reported in IntAct's records for PubMed 18794898.

B1: Indian hedgehog protein (Mus musculus), P97812 (parent)
chain: MSPAWLRPRLRFCLFLLLLLLVPAARGCGPGRVVGSRRRPPRKLVPLAYKQFSPNVPEKTLGASGRYEGKIARSSERFKELTPNYNPDIIFKDEENTGADRLMTQRCKDRLNSLAISVMNQWPGVKLRVTEGWDEDGHHSEESLHYEGRAVDITTSDRDRNKYGLLARLAVEAGFDWVYYESKAHVHCSVKSEHSAAAKTGGCFPAGAQVRLENGERVALSAVKPGDRVLAMGEDGTPTFSDVLIFLDREPNRLRAFQVIETQDPPRRLALTPAHLLFIADNHTEPAAHFRATFASHVQPGQYVLVSGVPGLQPARVAAVSTHVALGSYAPLTRHGTLVVEDVVASCFAAVADHHLAQLAFWPLRLFPSLAWGSWTPSEGVHWYPQMLYRLGRLLLEESTFHPLGMSGAGS
partner: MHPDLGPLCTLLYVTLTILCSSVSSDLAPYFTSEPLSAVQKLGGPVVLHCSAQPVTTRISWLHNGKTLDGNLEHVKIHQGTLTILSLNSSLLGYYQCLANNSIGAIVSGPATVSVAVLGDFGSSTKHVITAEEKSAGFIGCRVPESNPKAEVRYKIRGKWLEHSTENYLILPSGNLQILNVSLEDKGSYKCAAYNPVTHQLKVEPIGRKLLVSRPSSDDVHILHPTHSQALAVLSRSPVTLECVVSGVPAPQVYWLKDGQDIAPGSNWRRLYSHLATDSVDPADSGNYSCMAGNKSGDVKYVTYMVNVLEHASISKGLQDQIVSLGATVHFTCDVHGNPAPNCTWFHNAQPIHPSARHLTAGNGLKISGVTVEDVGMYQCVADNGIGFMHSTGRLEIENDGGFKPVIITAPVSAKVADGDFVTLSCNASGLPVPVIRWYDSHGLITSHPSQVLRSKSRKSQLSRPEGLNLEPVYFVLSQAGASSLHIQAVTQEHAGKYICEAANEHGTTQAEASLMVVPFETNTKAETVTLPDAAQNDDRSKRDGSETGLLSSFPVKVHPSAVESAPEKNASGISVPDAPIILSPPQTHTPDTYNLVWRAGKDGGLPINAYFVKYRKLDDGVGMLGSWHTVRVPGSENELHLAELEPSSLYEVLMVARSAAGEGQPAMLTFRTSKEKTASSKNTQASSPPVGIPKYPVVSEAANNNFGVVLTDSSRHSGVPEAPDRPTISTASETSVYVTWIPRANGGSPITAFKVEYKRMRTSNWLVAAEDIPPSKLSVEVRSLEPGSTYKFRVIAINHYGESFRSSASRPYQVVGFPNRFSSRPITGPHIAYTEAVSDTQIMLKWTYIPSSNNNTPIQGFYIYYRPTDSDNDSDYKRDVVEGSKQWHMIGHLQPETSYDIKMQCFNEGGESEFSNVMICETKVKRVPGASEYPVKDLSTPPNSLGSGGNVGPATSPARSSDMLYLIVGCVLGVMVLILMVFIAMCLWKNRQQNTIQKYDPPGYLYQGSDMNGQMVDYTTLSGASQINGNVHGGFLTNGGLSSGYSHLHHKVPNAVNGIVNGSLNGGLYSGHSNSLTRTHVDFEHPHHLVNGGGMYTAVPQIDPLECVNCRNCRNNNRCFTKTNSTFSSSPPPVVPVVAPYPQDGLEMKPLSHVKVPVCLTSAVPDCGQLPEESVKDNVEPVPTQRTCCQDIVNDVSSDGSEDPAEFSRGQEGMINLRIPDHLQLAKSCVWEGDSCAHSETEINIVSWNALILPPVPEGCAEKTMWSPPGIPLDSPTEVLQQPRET

Variants of: B1
Details: with cdon_human CDON

| Variant | effect of a mutation on the interaction |
| --- | --- |
| E131K | disrupting interaction |
